Kd data for one molecule are collected here from patent publication US20020127227A1 (GlaxoSmithKline, published 2002).

In this experiment the target is T1, recombinant human RHAMM (receptor for hyaluronic acid mediated motility), GST tag removed (human, UniProt O75330-3 1-725, limits assumed).
T1 construct: Any residues left by the linker after thrombin cleavage are not described; The BIAcore text says only 'RHAMM' and 'soluble monomeric RHAMM'; also called soluble monomeric RHAMM
T1 sequence (looked up): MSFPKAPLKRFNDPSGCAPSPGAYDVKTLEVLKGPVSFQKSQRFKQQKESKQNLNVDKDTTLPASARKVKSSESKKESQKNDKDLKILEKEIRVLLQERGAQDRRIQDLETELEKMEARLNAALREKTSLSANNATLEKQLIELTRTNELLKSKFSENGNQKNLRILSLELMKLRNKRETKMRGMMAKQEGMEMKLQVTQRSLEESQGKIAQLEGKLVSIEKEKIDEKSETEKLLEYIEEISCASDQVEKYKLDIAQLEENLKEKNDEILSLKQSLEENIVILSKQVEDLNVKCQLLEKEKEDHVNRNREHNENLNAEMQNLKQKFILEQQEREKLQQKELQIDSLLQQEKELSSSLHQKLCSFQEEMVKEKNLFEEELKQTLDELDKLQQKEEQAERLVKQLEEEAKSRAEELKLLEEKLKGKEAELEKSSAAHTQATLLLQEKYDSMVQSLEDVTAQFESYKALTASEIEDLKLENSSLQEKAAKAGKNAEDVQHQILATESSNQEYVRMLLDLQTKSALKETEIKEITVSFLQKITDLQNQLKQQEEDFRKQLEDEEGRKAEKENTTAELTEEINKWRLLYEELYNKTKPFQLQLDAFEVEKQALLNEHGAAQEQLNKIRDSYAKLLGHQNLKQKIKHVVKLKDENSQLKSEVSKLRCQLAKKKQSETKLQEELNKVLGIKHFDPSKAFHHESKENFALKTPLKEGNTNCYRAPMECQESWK
Nature of the experiment: BIAcore SPR, mAb captured on rabbit anti-mouse IgG Fc, RHAMM injected. The procedure:
The affinity of the purified mAbs was measured in the BIAcore. Using a flow rate of 10 ul/min, the mAb (diluted in HBS buffer) was injected over a rabbit anti-mouse IgG Fc surface, followed by buffer flow and the RU recorded. RHAMM diluted in HBS buffer was then injected for 180s followed by buffer flow for 150s and regeneration of the sensor chip surface with an injection of 0.1 M phosphoric acid. BIAcore software was used for association and dissociation-phase analysis. The murine monoclonal antibodies bound to soluble monomeric RHAMM. The on-rates (kₐₛₛ) and off-rates (kdiss) were calculated.
On the technique in general: In SPR one partner is held on a chip, and binding of the other changes the refractive index at the surface.

For orientation: Kd means the free concentration of one partner at which half of the binding sites on the other are occupied at equilibrium, for simple one-to-one binding.

B1: murine monoclonal antibody 16E10 (antibody, V domains shown)
VH: QVQLKESGPGLVAPSQSLSITCTVSGFSLTGYGVNWVRQPPGKGLEWLGMIWVDGGTDYNSALKSRLSISKDNSKSQVFLKMNSLQTDDTARYYCARGGSSLLGFAYWGQGTLVTVSA
VL: DIQMTQTTSSLSASLGDRVTISCRASQDISNYLNWYQQKPDGTVKLLIYYTSRLHSGVPSRFSGSGSGTDYSLTISNLEQEDIATYFCQQGNTLPRTFGGGTKLEIKR
modifications: N-terminus of the heavy chain blocked with pyroglutamic acid
notes: The rest is mouse IgG with a kappa light chain (amplified with mouse IgG CH1 and C kappa primers); also called mAb 16E10; ATCC 16E10
In the case of B1, the Kd turned out to be 0.47 nM.
